In publication PMC4344510 one finds Kd, binding result and binding signal data, which are given here for six molecules.

For data set [1], the target named is T1, Hfq WT (Escherichia coli, UniProt P0A6X3 1-102). The data set can be described thus: fluorescence polarization. A general note: Fluorescence polarisation rises when a labelled molecule tumbles more slowly, as on binding a larger partner.
For the next data set, the target named is Hfq65 R16A/R17A (Escherichia coli, UniProt P0A6X3 1-65, R16A;R17A). Nature of the data set: NMR.
Data set [2] deals with T2, Hfq N48A (Escherichia coli, UniProt P0A6X3 1-102, N48A). The data set can be described thus: fluorescence polarization.
Data set [3] deals with T1, Hfq WT. The data set can be described thus: fluorescence polarization. The source holds these as a separate data set.
A further data set concerns the target Hfq F42S (Escherichia coli, UniProt P0A6X3 1-102, F42S). Nature of the data set: fluorescence polarization.
Data set [4] concerns the target T3, Hfq N28A (Escherichia coli, UniProt P0A6X3 1-102, N28A). The data set can be described thus: fluorescence polarization.
In data set [5] the target is T3, Hfq N28A. Nature of the data set: fluorescence polarization. This is another data set of the same source.
Data set [6] deals with T3, Hfq N28A. Nature of the data set: fluorescence polarization. This is another data set of the same source.
In data set [7] the target is T2, Hfq N48A. The data set can be described thus: fluorescence polarization. The source holds these as a separate data set.

Where two headings read alike, the source gives them in different places.

As a reminder, the Kd is the equilibrium constant for the complex coming apart. Low values mean higher affinity, high ones lower affinity. In turn, AAUAACUAAA (ssRNA) [OxyS 65-74 10-nt] had a Kd with Hfq WT [1] of 13 nM.
Turning to AACUAAA (ssRNA) [Ads], the binding result with Hfq65 R16A/R17A is on record as “binds”.
Regarding AACUAAA (ssRNA) [Ads (FAM)], the values for the Kd with Hfq N48A [2] and with Hfq WT [3] were 92.8 nM and 1490 nM, respectively. For the same molecule, the binding result with Hfq F42S and with Hfq N28A [4] was “binds” each time.
AUAACUA (ssRNA) [Aus]: the binding result in the data set with Hfq65 R16A/R17A is recorded as “binds”.
In the case of AUAACUA (ssRNA) [Aus (FAM)], the results for the Kd with Hfq WT [1] and with Hfq N48A [2] were 22 nM and 16.8 nM, respectively. In the data set with Hfq F42S, the binding result is reported as “binds”. Also, the binding signal with Hfq N28A [5] is ~6 fold weaker than WT.
Consider AAAAAAA (ssRNA) [A7 (FAM)], for which the binding signal was ~40 fold weaker than WT with Hfq N28A [6] and ~27 fold weaker than WT in the data set with Hfq N48A [7].
